These results are taken from a protein production outcome set (Wang et al. 2014).
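Note: failed if final PepcDB status was selected cloned or expressed and not failed if soluble or beyond.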

The series can be described thus: label from the status in PepcDB records.
Regarding “MGGLTLFAAQGCKAPKQVAEQAEHPNIIYVFPDQYRNQAMGFWNQEGFRDKVNFRGDPVHTPNIDTFARESMVLTSAQSNCPLSSPHRGMLLTGMYPNRSGVPLNCNSTRPISSLRDDAECIGDVFSKAGYDCAYFGKLHADFPTPNDPENPGQYVETQRPVWDAYTPKEQRHGFNYWYSYGTFDEHKNPHYWDTDGKRHDPKEWSPLHESGKVVSYLKNEGNVRDTKKPFFIMVGMNPPHSPYRSLNDCEEQDFNLYKDQPLDSLLIRPNVDLNMKKAESVRYYFASVTGVDRAFGQILEALKQLGLDKNTVVIFASDHGETMCSQRTDDPKNSPYSESMNIPFLVRFPGKIQPRVDDLLLSAPDIMPTVLGLCGLGDSIPSEVQGRNFAPLFFDEKAEIVRPAGALYIQNLDGEKDKDGLVQSYFPSSRGIKTARYTLALYIDRKTKQLKKSLLFDDVNDPYQLNNLPLDENKEVVEQLYREMGTMLKEIDDPWYTEKILSDRIPYLEHHHHHH”, the protein production entry was “failed”. “MKRSIEDTPIVLIGAGNLATNLAKALYRKGFRIVQVYSRTEESARELAQKVEAEYTTDLAEVNPYAKLYIVSLKDSAFAELLQGIVEGKREEALMVHTAGSIPMNVWEGHVPHYGVFYPMQTFSKQREVDFKEIPFFIEASSTEDAAFLKAIASTLSNRVYDADSEQRKSLHLAAVFTCNFTNHMYALAAELLKKYNLPFDVMLPLIDETARKVHELEPKTAQTGPAIRYDENVIGNHLRMLADDPAMQRLYELLSRSIHERQ”: the protein production result is “not failed”. Regarding “MHIAIIGDQAATRQATTQLLSQLTTPTQPLQVTAYPTAEAFLFADQPADLLLLDIKLGSGMDGMTLAKQIREHDAATAIAFVSNYDEFVFDGYDVNALDYVIKPITSDKLQHLISKVAAQTQPKLLVFTTANGIQRVAMYDISAIEVTDHRLQVHTQKMTYTVAGQLKEFLPQLDENFIQIYRSIVINLNFLSQLEKNTVVMADGTSYPVSRQQAPLVKQAFFKHFRGLAHDSELEHHHHHH”, the protein production result is reported as “failed”. Turning to “MWYTVQPGDSLYTISQRFGVTIAQIKSANQLTSDIIYVGQRLYIPIGIQAPVVYTVRPGDTLYLIARRYNTTVDSLMALNNLSSTELRIGQQLTIPLYTEAVVNVGTANIRRGPGTNFGIITRMTNGARLPVIGFSNNWYQVRLYNGREGWISGSIVTRNVYSGRRPITGVLGFYTLEEGPTLPSSFTSFANNTGQLSSTALFMFRISAANPTTIEKFGEFTDQDVRNLVAIAHRNNVKIMPVVHNLLYRPGGTTLAKNVVKTLVSDPRNRNAFALNLVNLIERYGFDGVNIDIEDVFIEDSDNLSLLYTEISEVLRPRGYFFSASVPSRVSDEPFNPFSDPFNYSVIGRAVDEFVVMLYNEFGWPGSPPGPAVTIGWMERVLRYTMSKMPRDKIMAAVSVFGFDFNLTTGRNTYVTYQSAINLARRYNSEIIFNEERQTPMFTYRDAQGNQHEVWFEDARSLRSKIQLAWELGIKGVALWRLGMEDPNIWPMLRNEVVVRKF”, the protein production entry is listed as “failed”. “MKEDRVVFIFGPTAVGKSNILFHFPKNKAEIINVDSIQVYKEFNIASSKPSKNLMKHIKHHLVDFLDPEKDYTIGIFYEQALKIVKEIRQKKKIPIFVGGTAFYFKHLKDGFPSTPLVTSKIRIYVNNLLELKGKSYLLKELKNVDPIRFNMLNKNDIYRIKRSLEVYYQTGIPISQFQKKQSSEFKNIVIIGLKRSFEDLKTRISIRINEMLNSGLLSEIKGLFSKGYNENTPAFKGIGYNEFLLWKSRPCYGLNDIIGLINKNSFLYAKRQMTFFAKISDVLWLHPEDDLDNILNLIFKVDKEI”: the protein production entry is given as “failed”. With “MLQIIVPMAGAGSRFAVAGYTDPKPLIPVHGVPMIKVVIDNLTPDCPHRFIFICQAEQVAAYGLREKLNAWAPGCGIVELGGLTGGAACTVYAARHLINYDQQVMIANSDQYVDVDINAYLHAMNECDAAGLIMTMKASDPKWSFVGFDSQGHINRVVEKEVISDEATVGIYNFRSGGQLVSAIEAMVLKDLRVNGEFYVAPAYNELIEQGAKVIHYSIGAEGHGMYGLGIPVDLNLFLSLPLSRQAASGVGNLEHHHHHH”, the protein production entry was “failed”. As to “MLSMVEVKIIKSDGFFNEVLISSDKKIHFDTAYAEGDFNCFGEGSIVSETTDDLKFKIANLIPGKYHFKIAIDQYKILREAENRSGSYSFSIWLEKPYHNPDYAQFCAIIDKKLMDVRIAVPKHSISVSIFTKDTLKPVYSRRASFDTFDAVEYVFDGMSDYYFEVDNSRLPKEGYFSPKVHIEHEGGSKIIYHIFPDRFFRVGPHLPTLSRWGDKPTFSSFFGGNLRGITEKIGYIKALNVDTIYLNPVYKSKSNHRYDVDDYFSIDGLLGGEQDFIELVNEAHENGIKIVADMVFNHTSTDFPYFLDALKNGKNSKYWNWYIFHGEGAAVFDGRAKGKTKPLYETFMGVGRMPKLNHKNAEVRKFCIDVMKYYKNKFGVDGFRYDVAHSIYPEFFLEAVKEFGNEMLHIGEAWCLPSMFMLSGYWNSFTNYYLRNAIIKFVREEINITEFYNMIQNMIISYGPLIQQNVMNILDSHDTERILRAFKGNKKKVKLAYSILFMFDGFATIYYGDEVGLDGGRDPDDRRCFPWDNMDEDMLQFLKKLGEIRRMYHTGSAGIITVEETQECKYITRLSGESIIKVAIAKKPVTLEGEIILSSCGEKTIYEGDFALSIAKYA”, the protein production entry is recorded as “failed”. As for “MTWSFTLGRLFGSELKVHVTFFLLIGWIGVSAYQMGGWPSAVENTAFVLALFACVVAHEYGHALTARRYGIRTPDITLLPIGGLARLDRMPEKPGQEIVVALAGPAVNVAIWAALTLVGVDTRFETLAAIDSAEPDFLGRLAMVNLFLAVFNLIPAFPMDGGRVLRAALSLTMDRVRATRIAAAAGQLVALLFGFAGLSGGNPVLVLIAVFVFIAANAEAQDVAMRAVTRRLLARDAMITRFEALGPTDTLATAAQAVLHTTQHEFPVLDGEGHLLGFVTRARLFAALAADHPRSDPAETVMDREIPQVPLASGLETVLDALYQGAPAVAVTSADGRMLGYVTRENVGELMVIQGR”, the protein production result is given as “failed”. As for “MADIKRIALLSGGGDCPGLNAVIRAVTKAAINEYGYEVIGYVYGYRGLYNNDYIELTVDKVENIYKEGGTILYSSNKDNLFDYLVDDGHGGKVKKDVSDVGVENLKKAGVDVLVVLGGDGTLTSARDFARKGVNVIGIPKTMDNDLPATDLTYGFISASSVGTEFIDRLNTTAKSHHRVICCELMGRDAGWIALYAGMAGNASCILIPEIPFTIDSIVRHVEKRDKEGYPYTVIAVAEGAKYADGTKVIGKIVEDSPDPIRLGGIASKVADDLEKVIKNHEVRSVNPGHIIRGGDIQAYDRILSIRFGVKAVELIHEGKFGNVVTLKGEEMSYTSLEEVIGDAKFGKQKHVDPNGELVRAAKSIGICFGDD”, the protein production result was “failed”. Take “MLIINKLNHAQKQLEKLNFIPQQADKVDFLASSSEFKARILQLINTAKSRIYLTALYFEQDEAGQQILAALYQAKLANPALDIQILVDWHRAQRGRIGEKTTSSNADWYANMKQQYNLPPEQEIAVWGVPINGREIFGVLHLKGFIFDDTILYSGASINNVYLQQFDRYRYDRYHTLENKVLADSLVTFLQQHILTDHAVNRLDNMQRPVTANIRPAIKAFRKQLTKQQYQFAEQPESNGLMLSPIAGLGRKNQLNKTIEALFYKTQNKLTICTPYFNFPRSLITRIKWLLENGKQVEIIAGDKKANDFYTPPDKKFTMAAALPYLYEKNLRAFAKRFDSYIQNKLLTIRLWKDGENTYHLKGLWVDNRYILLTGNNLNPRAWGLDAENGILLDDPKAELAEKAALELTQIRTFTQELSHYSDLETIKDYPLEVQKLLKKFGRVKLDKIIKMLLLEHHHHHH”: the protein production entry was “failed”. Next, “MSLTDEPKLLAEPREGVPNVIDTLPAFRDYCSELASSHGSLAADAERASGFRYGHEDWLVQFKRDGAGIGLLDPQALAAAGADWNDFNRAVGDAVWILHDSLQDLPGFDELGMEPQRLFDTEIAARLLGLKRFGLAAVTEHFLGLTLAKEHSAADWSYRPLPRDWRNYAALDVELLIELETKMRAELKRQGKMEWAQEEFDYALKEGLGPRKEHLIPWMHVSHITEVMRDRQALAIVRALWTRRDELAREYDIAPTLLLSDSSIIEVAKRKPHNAAQFRSIRSINERVRIHTDSEQDKMFERYAPIQRKIKPSMWKNIIQDALALPPSEWPDVDGGAARRHESQSASAPKSIRVWKERYPERLQVLNRVRKAVSQIAEDTRTPVEIVIKPQYLRNLCWTDEPRKRDVARFLSEQGARDWQVSLVAESVSRAIEGHHHHHH”: “not failed”. For “MKKDLISVVMSAYNSEKFISDSISSILDQTYENWELIIINDASSDNTLKIVNQFSEKDPRIKVIDNENNLGLTISLNIGINNSKGEFIARLDSDDFAEPSRLEKELDHLHAYPEAGLVGSGAHLINSSGNKIGSMNVMSQPYFVNRFLINLNPFIHSSIMVRKKALDNVGSYREKFRYSQDYDLILRLSDKYKLSNIALPLIRWRVSDSSVTMQHHTLQRIYADIAREFAIERRNSGHDSYESTEFDTLIHEMRIRNQGRYLCDHGVYDLLFNKKYKEGCSELIKGISKGGFPYNSFYRGITQVISKVNIQLEHHHHHH”, the protein production entry is reported as “failed”.

For “RHQVESSPLFRALALRCNQTMVTLRSANMFHAYGFLAKVFEILAKHKISVDLITTSEISVSLTLDQTDTSGGAPQLPQAAREELEELCKVEVEHDLCLVALIGNKMSERKGYAKQVFGTLEDLNLRMICYGASPHNLCFLVNESVAKQAIQKLHTELFEQ”, the protein production entry was “not failed”. Next, “MRWKLRTAGGLTALALLGGALAGPAARAAEQGSDRLGDLVNPFIGTQNEGNTYPGAAVPFGMVQLSPDTGHNTGYDYTQNHIRGFSLVHLSGVGCRIGGDLPVLPTTGDVTETDYAKYAAGFSHDSERASPGYYRVGLDSGIVAELTATGRTGVQRYTFPATDKANVLLNAGQALHKTVSTDVEVLDDRTVRTRISGSGFCRDTGPYTVYTITRFDRPFTAYGTWHGGTVTEGSAESAAGTGRNGAYARFDATEDRTVEATTALSYVDARGAEVNLRSAEGRSFADVREAARRSWEDRLDDVRVRGGSDTLRRTFYSSLYRSFLAPNIGSDADGRYTGWDHRIHRARGFTYYQNWSLWDTYRTQCQLLALLAPRESRDMAISVLKIDEDGGWLPKWGYGTVETNIMSGDPVTPFLTNAYQQGLLKGYEEQAYRALAKNADGLPPAAYPGVGRDGNREYIADGFVPYIKGGPHAKPGDSDYAHGASATMEYALSDAMLSRMARDLGHDADAERYTARSRNYRTLFDASTGFFRARDTSGAFAGPADPADSEGFHEGTAWQYQWLVPQDLPGLVDLIGGKQAANDRLDAFFAYEQLLQDPARTAREVWVDGPYEYYNSDKYNPQNEPDLIAPYTYLSTGQPWKTTDVVHAALTLFTDTPTGMTGNDDLGTMSAWHVLSSIGLFPVQPGYDTWGLSTPVFERVDLRLDRGYYPRGTLTVTAPGTSDRDRYIQSVRVDGASHDRTYLTTRVLRGLEALHFAVGARPSAWGTAPHAAPPALK”: “failed”; “NNVIGALCVFQDISELVGIKELNERFQKILETSHDLICFIDENRKISYINPTYEKCLNIKSEDVLGKDLMKISPD”: “failed”; “MSRASVTIGARRNGAIKAAAHARIRPVANSSCLAISRQMQHRYTMFEPKPQNPALAAALIFAATAFIAGTTLLAKALGTGALGPALPALQISHGRFLFALAVILSIVAATRPRLSRPHWGLHLGRTSFGWAGVTLMFAAVAYIPMADATAIAFLNPVFGMLLAIPLLGERVGPWRWGAAVIALVGALILLRPTPGSFQPAALLALAAAAVMGMELIFIKKLAGRERPIQILLVNNAMGLAIASLAVWPVWQAPLPAQWAALAGIGLLMACAQICFVNGMARADASFVAPFSYGTLVFAALYDLAVFQVWPDAISLGGAAIILTGALTLAWREGRVRRP”: “failed”. Next, “MFSLKMRASSNGNHVSGAERLVKEEQIEEISSELIKRAMNHENGVPDFINLKVEKVTENINYIEHLKIKTINSNSKETSREFAINILKKELENYFLKNGKDTKKIDELIDSAFKIIDAGNMRGAAILDLDGNRLEKSSDRGIRVRNIDTAEELSKKILKDGSLTERTVDAIAIATKVVNCDIIAELCTSDNFSYTTGYVATKDGYFRILNLKDSGQVGGRVFFAESSDIDELYDKLENMPVIVY”: “failed”.
